We go through 40 sequences from the nanobody polyreactivity screen of Harvey et al. (2022).

This data set in a line: yeast display, Sf9 membrane polyspecificity reagent, FACS + sequencing; frameworks hold sequencing errors. In short, it runs like this:
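In a synthetic yeast display library (Saccharomyces cerevisiae BJ5465), nanobody expression was induced with galactose for 36–48 hours. FACS gates were set low and high (top ~1%) using anti-HA fluorescence for expression and streptavidin fluorescence for binding of the Sf9 membrane reagent. Each polyreactivity label is drawn from the gate of origin.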
Turning to “QVQLVESGGCLVQAGGSLRLSCAASGSIFYNNAMGWYRQAPGKERELVASSTGGGSTYADSVKGRFTISRDNAKNRVYVQMNSLKPEDTAVYYCAVGRYFVRYDYWGQGSQVTVSS”, the “polyreactivity (PSR sort gate)” value is recorded as “low polyreactivity”.
For the sequence “QVQLVESGGCLVQAGGSLRLSCAASGSIIGLYPMGWSRQAPGKERELVAAITQSAGSTYYADSVKGRFTISRDNALNTVFLQMNSLKPEDTAVYYCAAVWAYYGYESDYWGQGTQVTVSS”, the “polyreactivity (PSR sort gate)” value is on record as “low polyreactivity”.
As for “QVQLVESGGCLVQAGGSLRLSCAASGSTFDINAMGWYRQAPGKESELVASITFSGGSTYYADSVKGRFTISRDNAKNTVYLQMNSLKPEDTAVYYCAADSSGEYPGGYWGQGTQVTVTS”, the “polyreactivity (PSR sort gate)” value is recorded as “low polyreactivity”.
Regarding “QVQLVESGGCLVQAGGSLRLSCAASGSTFGGNAMGWYRQAPGKERELVAAISTSGGSTYYADSVKGRFTISRDNAKNTVYLQMNSLKPEDTAVYYCNAVRIGGAPRSRFYDWGQCTQVTVSS”, the “polyreactivity (PSR sort gate)” value was “high polyreactivity”.
Turning to “QVQLVESGGCLVQAGGSLRLSCAASGSTFHYNAMGWYRQAPGKERELVATISWSGGSTYYADSVKGRFTISRDNAKNTVYLQMNSLKPEDTAVYYCAARYSGYRGSFYGRHGGKYYYWGQGTQVTVSS”, the “polyreactivity (PSR sort gate)” value is on record as “high polyreactivity”.
Consider “QVQLVESGGCLVQAGGSLRLSCAASGSTFPAYAMGWYRPAPGKERELVAAISRSGGSTYYADSVKGRFTISRDNAKNTVYLQMNSLKPEDTAVYYCAARAAYSYDDGYWGQGTQVTVSS”, for which the “polyreactivity (PSR sort gate)” value is given as “high polyreactivity”.
For “QVQLVESGGCLVQAGGSLRLSCAASGSTFWSYAMGLYRQAPGKARELVAVIYRGGSTNYADSVKGRFTISRDNAKNTVYVQMNSLKREDTAVYYCASRYKTAEYYYWGQGTQVTVSS”, the “polyreactivity (PSR sort gate)” value is “high polyreactivity”.
As for “QVQLVESGGCLVQAGGSLRLSCAASGSTIYAMGWYRQAPGKERELVAGINRSGTRTYYADSVKGRFTISRDNAKNTVYLQMNSLKPEDTAVYYCAALVYRPTYGYIFDYWGQGTQVTVSS”, the “polyreactivity (PSR sort gate)” value is on record as “high polyreactivity”.
Take “QVQLVESGGCLVQAGGSLRLSCASSGRTFRRYTMGWYRQAPGKETELVAAITSGGRTNYADSVKGRFTISRDNAKNTVYLQMNSLKPEDTAVYYCNAQNEIWRVTFSPYDRWGYDYWGQGTQVTVSS”: the “polyreactivity (PSR sort gate)” value is “low polyreactivity”.
As to “QVQLVESGGCLVQAGGSLRLSCASSGSTIGGYAMGWYRQAPGKERELVAAITWNGGRTYYADSVKGRFTISRDNAKNTVYVQMTSLKQEDTAVYYCATLNLSRSKRVSGGGYWGQGTQVTVSS”, the “polyreactivity (PSR sort gate)” value is listed as “high polyreactivity”.
Consider “QVQLVESGGCLVQAGGSLRLSCASTGSIIYWYTMGWYRQAHGKDRELVAASSSIDGNTYYADSVKGRFTISRDNAKNTVYLQMNSLKPEDTAVYYCPAAYYNTDYYYWGQGTQVTVSS”, for which the “polyreactivity (PSR sort gate)” value was “low polyreactivity”.
The result for “QVQLVESGGCLVQAGGSLRLSSAASGRTFRYYAMGSYRQAPGKERELVAAITVTVTSTFYADSVKGRFTISRDNAKNTVYLQMNSLKPEDTAVYYCAVPGATSYFPDDSWGQGTQVTVSS” reads “low polyreactivity”.
For the sequence “QVQLVESGGCLVQAGGSQRLSCAASGIIFEGYAMRWYRQAPGRERELVAAISQSGGSTRYADSVKGRFTISRDNAKNTVYLQMNRLKAEDTAVYYCAKEVWNWGPYYYWGQGSQVTVSS”, the “polyreactivity (PSR sort gate)” value is listed as “low polyreactivity”.
In the case of “QVQLVESGGCLVQAGGTLRLSGAASGRTFRADGMGWCRQPPGKEWELVAVISWRDGSTFYADSVQGRFTISRDTAKNTVYLQMNSLKPEDTAVYYCNKASQLYYIQGTYSYGYWGQGTQVTVSS”, the “polyreactivity (PSR sort gate)” value is on record as “low polyreactivity”.
In the case of “QVQLVESGGCLVQEGGSLRLSCAASGITFYLYAMGWYSQGPGKERELVATISRSGGSTYADSVKGRFTISRDNAKNNVYLQRNSLKPEDTAVDYCNADGWYGYWGQGTQVTVSS”, the “polyreactivity (PSR sort gate)” value is on record as “low polyreactivity”.
On to “QVQLVESGGCLVQEGGSLRLSCAASGSTVTYYDMGWYRQAPGKERELVATIDSTTRTYYADSVKGRFTISRDNAKNTVYLQMNSLKPEDTAVYYCAADMTWGYFYYLFYRYDYWGKGTQVTVSS”, for which the “polyreactivity (PSR sort gate)” value was “low polyreactivity”.
For the sequence “QVQLVESGGDLVQAGGSLRLSCAASGSIFYINAMGWYRQAPGKERELVASISYSGTSTYYADSVKGRFTISRDNAKNTFFLQMNSLKPEDTAVYYCNAEDTAGAGDGYWGEGTQVTVSS”, the “polyreactivity (PSR sort gate)” value is listed as “low polyreactivity”.
Consider “QVQLVESGGDLVQAGGSLRLSCAATGFTFDYYAMGWYRQAPGKEREFVAAISRSGGRTYYADSVKGRFTISRDNAKNTVYLQMNSLKQEDTAVYYCAAGFVGERFDYWGQGTQVTVSS”, for which the “polyreactivity (PSR sort gate)” value is “high polyreactivity”.
Turning to “QVQLVESGGDLVQAGGSLRLSCGASGFIFDGYAMGWYRQAPGKERELVAAISSSGGRTHYADSVKGRFKISRDNAMNTVYLQMNSLKAEDTAVYYCAATVRGKRSTYDYWGQGTQVTVSS”, the “polyreactivity (PSR sort gate)” value is “high polyreactivity”.
Regarding “QVQLVESGGFLVQAGGSLRLSCAASGFTFAKYAMGWSRQAPRKERELVAVITSSGGRTYYADSVKARFTISRDTAKNTVYLQMISLKPEDTAVYYCNAGKYVYATSQYDYWGQGTQVTVSS”, the “polyreactivity (PSR sort gate)” value is recorded as “high polyreactivity”.
As to “QVQLVESGGFLVQAGGSLRLSCAASGSTSYNYVMGWYRQAPRKERELVAGITWSDDITYYADSVKGRFSISRDNAKNTVYLQMNSLKPEDTAVYYCAAEDGPLYWRFPDEMDYWGQGTQVTVSS”, the “polyreactivity (PSR sort gate)” value was “low polyreactivity”.
Take “QVQLVESGGGEVQAGGSLRLSCAASGSIFRFYTMGWSRQAPGTERELVATLARGGSTNYADSVKGRFTISRDTAKNTVYLQMNSLKPEDTAVYYCNVAALYSTYCGYGYDYSGQGTQVTVSS”: the “polyreactivity (PSR sort gate)” value is “high polyreactivity”.
For the sequence “QVQLVESGGGEVQEGGILRLSCAASGSIFSRNSMGWYRQAPGKDRELVAAITWSGGSTYYADSVKGRFTISRDNAKYTVYLLMNSLKPEDTAVYYCNADFAGTPNQYDYWGQGTQVTVSA”, the “polyreactivity (PSR sort gate)” value is given as “high polyreactivity”.
As to “QVQLVESGGGFDHAGGSLRLSCAAYGSTFVYNAMGWYRQAPGKERELVAAITSTGGNTDYADSVKGRFTISRDNAKNTVYLQMNSLKPEDTAVYYCNARDYYWLGFTYRFDYWGQGTQVTVSS”, the “polyreactivity (PSR sort gate)” value was “low polyreactivity”.
For “QVQLVESGGGFVQAGASLRLSCAASGRTFYRYAMGWYRQAPGKERQLVAAINWRGGSTSYADSVKGRFTISRDNAKNTVYLQMNSLIPEDTAVYYCNAKFICWYEKGGCNVSKYEYWGQGTQVTVSS”, the “polyreactivity (PSR sort gate)” value was “low polyreactivity”.
Next, “QVQLVESGGGFVQAGGSLRISCAASGRTFYPYAMGWYRQAPGKERELVAAISRSGGGTYYADSVKGRFTISRDNAKNTVYLQMNSLKPEDTAVDYCAADDGVAIYDYWGQGTQVTVSS”: “low polyreactivity”; “QVQLVESGGGFVQAGGSLRLICAASGSIDYNAMGWYRQAPGKERELVAAITQRGGRTYYADSVKGRFTISRDNAKNTVYLQMNSLKPEDTAVYYCNTKGNYGLGYKNYYWGQGTQVTVSS”: “high polyreactivity”.
Consider “QVQLVESGGGFVQAGGSLRLSCAASGFTFRYYAMGWYRQAPGKERELVAAISRGGNTYYADSVKGRFTMSRDNAKNTVYLQMNSLKPEDTAVYFCNSAYLYIARHGYWGQGTQVTVSS”, for which the “polyreactivity (PSR sort gate)” value is listed as “high polyreactivity”.
As to “QVQLVESGGGFVQAGGSLRLSCAASGGIFDVYAMGWYRQAPGKERELVAAISENGGSTYYADSVKGRFTISRDNAKNTVYLQMNSLKPEDTAVYYCAADDVSLSVFSYWAWYDYWGQGSQVTVSS”, the “polyreactivity (PSR sort gate)” value was “low polyreactivity”.
Turning to “QVQLVESGGGFVQAGGSLRLSCAASGNTFAGNAMGGYRQAPGKERELDAAISRSGVTTRYADSVKGRFTISRDNAKNTVYFQMKSLKPEDTAVSYCNADPRLRETRDYWGQVTQVTVSS”, the “polyreactivity (PSR sort gate)” value is recorded as “high polyreactivity”.
In the case of “QVQLVESGGGFVQAGGSLRLSCAASGRIFLWNAMGWYRQAPGKERELVAGIRWSTGSTYYADSVKGRFTISRDNAKYTVSLQMYSLKRDDTAVYYCNARSLATGSKVPARGYWGQGTQVTVSS”, the “polyreactivity (PSR sort gate)” value is reported as “high polyreactivity”.
For “QVQLVESGGGFVQAGGSLRLSCAASGRIIGYNAMAWYRQAPGKDRELVAAITTSGGSTYYADSVKGRFTISRDNAKNTVYLQMNSLKPEDTAFYYCARDSLQVFYAYASDDFWGQGTQVTVSS”, the “polyreactivity (PSR sort gate)” value is listed as “low polyreactivity”.
As for “QVQLVESGGGFVQAGGSLRLSCAASGRTFRYYAMGWYIQAPGKERELVASISSSGARTYYADSVKGRFTISRDNAKNTVYLQMNSLNPDDTAVYYCNARYSTTYYGTIYRGMDYWGQGTQVTVSS”, the “polyreactivity (PSR sort gate)” value is given as “high polyreactivity”.
With “QVQLVESGGGFVQAGGSLRLSCAASGSIFYYNAMGWYRQAPGKEREFVAAITTSAGSTYYADSVKGRFTISRDNEKNTVYLQMYRLKPEDTAVYYCAASPGRRRRPYASLFRYDYWGQGTQVTVSS”, the “polyreactivity (PSR sort gate)” value is listed as “high polyreactivity”.
For the sequence “QVQLVESGGGFVQAGGSLRLSCAASGSNLGKNTMGWYRQAPGKERELVATISRSGGSTYYADSVKGRFTISRDNAKNTVYLQMNSLKPEDTAVYYCAARAIRSGYYRYDYWGQGTKVTVSS”, the “polyreactivity (PSR sort gate)” value is given as “high polyreactivity”.
The result for “QVQLVESGGGFVQAGGSLRLSCAASGSTFFVYAMGWYRQAPGKERELVASIRWRGSSTYYADSVKGRFTISRDNAKNTVYLQMNSLKPEDTAVYYCAATSYNGYGYWGQGTQVTVSS” reads “high polyreactivity”.
Consider “QVQLVESGGGFVQAGGSLRLSCAASGSTFGTYAMGWYRQAPGKERELVAAISWSGGSTYYADSVKGRFTISRDNAKNTVYLQMNSLKPEDTAVYYCNATSSTPPGMDSWGQGTQVTVSS”, for which the “polyreactivity (PSR sort gate)” value is given as “low polyreactivity”.
With “QVQLVESGGGFVQAGGSLRLSCAASGSTFLVYAMGWYRQAPGKERELVAVIDTGASTNYADSVKGRFTISRDNAKNTVYLQMNSLKPEDTAVYYCAAGFSYFTSVLSLDRYYYWGQGTQVTVSS”, the “polyreactivity (PSR sort gate)” value was “low polyreactivity”.
Next, “QVQLVESGGGFVQAGGSLRLSCAASGSTFPVYAMGWYRQAPGKERELVAAISRSGASTYYADSVKGRFTISRDNAKNTVYLQMNSLKPEDTAVYYCARGYQGRLKNEYWGQGTQVNVSS”: “low polyreactivity”; “QVQLVESGGGFVQAGGSLRLSCAASGYTFDHNAMGWYRQAPGKERELVAAISLTGSSTYYADSVKGRFTISRDNANNNVYLQMNSLKPEDTAVYYCAAVYHQAFKYKFNYWGQGTQVTVSS”: “low polyreactivity”.
